Source: article PMC4383067 (Acta Neuropathologica Communications, 2015)

How the values were obtained:
[1] = target: Amyloid fibrils of human PrP Δ23-99 (human, UniProt P04156 100-231); assay: static light scattering kinetics; conditions: both partners purified
[2] = target: Amyloid fibrils of human PrP Δ100-120 (human, UniProt P04156 23-231, ∆100-120); assay: static light scattering kinetics; conditions: both partners purified

B1: Full-length human acetylcholinesterase (dimeric, recombinant) (enzyme)
chain: EGREDAELLVTVRGGRLRGIRLKTPGGPVSAFLGIPFAEPPMGPRRFLPPEPKQPWSGVVDATTFQSVCYQYVDTLYPGFEGTEMWNPNRELSEDCLYLNVWTPYPRPTSPTPVLVWIYGGGFYSGASSLDVYDGRFLVQAERTVLVSMNYRVGAFGFLALPGSREAPGNVGLLDQRLALQWVQENVAAFGGDPTSVTLFGESAGAASVGMHLLSPPSRGLFHRAVLQSGAPNGPWATVGMGEARRRATQLAHLVGCPPGGTGGNDTELVACLRTRPAQVLVNHEWHVLPQESVFRFSFVPVVDGDFLSDTPEALINAGDFHGLQVLVGVVKDEGSYFLVYGAPGFSKDNESLISRAEFLAGVRVGVPQVSDLAAEAVVLHYTDWLHPEDPARLREALSDVVGDHNVVCPVAQLAGRLAAQGARVYAYVFEHRASTLSWPLWMGVPHGYEIEFIFGIPLDPSRNYTAEEKIFAQRLMRYWANFARTGDPNEPRDPKAPQWPPYTAGAQQYVSLDLRPLEVRRGLRAQACAFWNRFLPKLLSATDTLDEAERQWKAEFHRWSSYMVHWKNQFDHYSKQDRCSDL
notes: also called AChE; dimeric AChE
**Q.** What does the source list for B1?
**A.** stoichiometry N [1]: 0.5; stoichiometry N [2]: 0.5
